Measurements as given in publication PMC5943153 (Molecular microbiology, 2018).

T1: T25-HP1492 (Nfu) (Helicobacter pylori strain 26695, UniProt O26025 2-89)
T1 sequence (looked up): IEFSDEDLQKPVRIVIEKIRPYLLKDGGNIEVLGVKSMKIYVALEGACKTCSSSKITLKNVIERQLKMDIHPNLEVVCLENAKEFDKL

T2: HP0221-T25 (NifU) (Helicobacter pylori strain 26695, UniProt O25009 2-326)
T2 sequence (looked up): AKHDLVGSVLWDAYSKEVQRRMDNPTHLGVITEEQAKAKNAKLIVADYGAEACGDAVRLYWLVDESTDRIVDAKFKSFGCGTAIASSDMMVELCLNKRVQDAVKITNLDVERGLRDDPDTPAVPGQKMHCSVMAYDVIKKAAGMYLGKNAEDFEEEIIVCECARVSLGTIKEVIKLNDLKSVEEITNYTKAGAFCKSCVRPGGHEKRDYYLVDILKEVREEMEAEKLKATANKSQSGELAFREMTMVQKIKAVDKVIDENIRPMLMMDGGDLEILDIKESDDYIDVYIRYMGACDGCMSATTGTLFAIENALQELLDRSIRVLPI

T3: T25-HP0221 (NifU) (Helicobacter pylori strain 26695, UniProt O25009 2-326)
T3 sequence (looked up): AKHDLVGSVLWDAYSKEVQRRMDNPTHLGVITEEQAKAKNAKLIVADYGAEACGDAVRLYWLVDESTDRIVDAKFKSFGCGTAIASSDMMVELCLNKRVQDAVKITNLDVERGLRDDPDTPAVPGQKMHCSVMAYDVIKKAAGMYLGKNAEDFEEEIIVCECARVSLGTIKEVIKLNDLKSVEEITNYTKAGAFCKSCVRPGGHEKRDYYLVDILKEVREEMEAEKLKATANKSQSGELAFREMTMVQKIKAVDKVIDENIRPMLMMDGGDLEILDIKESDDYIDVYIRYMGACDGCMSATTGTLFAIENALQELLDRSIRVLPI


Experiments:
Test in all cases: two-hybrid
[1] = target: T1, T25-HP1492 (Nfu)
[2] = target: T2, HP0221-T25 (NifU)
[3] = target: T3, T25-HP0221 (NifU)
[4] = target: T25-HP0220 (NifS) (Helicobacter pylori strain 26695, UniProt O25008 2-387)

Row | Binder | growth OD595 in M63-maltose [1] | growth OD595 in M63-maltose [2] | growth OD595 in M63-maltose [3] | growth OD595 in M63-maltose [4]
1 | T18-HP1268 (natural protein, Helicobacter pylori strain 26695, UniProt O25858 2-220, looked up) AKQEYKQLPKRAEVHSATEQFKDTVKTSLGLDLFKGLGLTIKEFFSPSVTIHYPMEQLPLSPRYRAVHNLQRLLDSGSERCIGCGLCEKICTSNCIRIITHKGEDNRKKIDSYTINLGRCIYCGLCAEVCPELAIVMGNRFENASTQRSQYGSKSEFLTSEQDAKNCSHAEFLGFGAVSPNYNERMQATPLDYVQEPSKEESQEETPTNPESNKGDENV | 0.18 OD595 | 0.22 OD595 | 0.33 OD595 | 
2 | T18-HP0568 (natural protein, Helicobacter pylori strain 26695, UniProt O25292 2-255, looked up) PLELFEKVCKEVAPLTQMITLHVLGDPCKLKNLNHYLSTARRFSLKVDLVTSGVYLHDFETLLQDVIYQISISLDAGLDHRNKLNQHRYIQKILEFCRYKCEKNSEVFLNLRIQDSTLDKHQNLIKPFLESFECVSLEGLKTQGRARLFKKSFLNIQKTFKWPSLNAQNPLNQKSKIPYCYGLIKQIAILSNGVVVPCCMDTQANISLGDLNHTPLKDVLKSQKAMAIKTHFLKGEALELLCQNCSYPLIRYKK | 0.14 OD595 | 0.36 OD595 | 0.13 OD595 | 
3 | T18-HP1428 (natural protein, Helicobacter pylori strain 26695, UniProt O25970 2-357, looked up) KASIYDFTLKELSQLLKPSFRAKQLYLWLYAKYKTSFKDMQNNFSKDFIAYLEREFALRTIEITHVRESVDGSKKYLFKSLRDNHTFEAVLLKMKDKKIDAETNAILEREKYTVCVSCQIGCQVGCSFCFTQKGGFVRNLKASEIIQQALLIKEDNNLPLEKALNIVFMGMGEPLNNLDEVCKAIEIFNTGMQISPKRITISTSGVADKIPILAGKNLGVQLAISLHAVDDKTRSSLMPLNKKYNIECVLNEVRKWPLEQRKRVMFEYLLIKDLNDSLDCAKKLLKLLNGIKSKVNLILFNPHEGSKFERPSLENARMFADFLNSKGLLCTIRESKALDIEAACGQLREKKLSQQI | 0.08 OD595 | 0.27 OD595 | 0.15 OD595 | 
4 | T18-HP0132 (natural protein, Helicobacter pylori strain 26695, UniProt P56072 2-455, looked up) ASFSILSIFKIGVGPSSSHTIGPMEAGARFCESLKGILEQVVRVQITLHGSLALTGKGHLSDEAVLIGLHGIYANELEVTTKKALLHEALENKVLKLANQHHIPFDYAKDLIFDNKPLTRHQNALILKAFNSKNEVLKEETYYSVGGGFVYTEKELDNLSEEDGNESIAYDFSSAKELLELCQKHQKSIAEIVRLRENALKNHPDATMVKIYHAMLECYDNGANSKERYLPGSLKVTRLAPSIKTRLEKHPTSGKDPLALIDYISLYARAIAEENASGGKVVTAPTNGACAVVPSVLLYAKNHLFENLSQKAINDFLLTSAAIGYLYKKNASLSGAEAGCQAEIGVASSMAAGGLAHLCQATTQQVLIASEIAMEHHLGLTCDPVGGLVQIPCIERNVLGAIKAISASKLALEDEYKPKVSLDEVIATMYATGKDMNEKYKETSLGGLAKTLKC | 0.27 OD595 | 0.14 OD595 | 0.21 OD595 | 
5 | T18-HP1540 (natural protein, Helicobacter pylori strain 26695, UniProt O26065 2-167, looked up) ADIQRRDFLGMSLASVTAIGAIASLVAMKKTWDPLPSVVSAGFTTIDVANMQEGQFSTVEWRGKPVYILKRSKKEGFNEKRDFKVGESVFTTAIQICTHLGCIPTYQDEEKGFLCPCHGGRFTSDGVNIAGTPPPRPFDIPPFKIEGTKITFGEAGAEYKKMMAKA | 0.17 OD595 | 0.44 OD595 | 0.24 OD595 | 
6 | T18-HP0585 (natural protein, Helicobacter pylori strain 26695, UniProt O25307 2-218, looked up) KMGLKRAKTHQKAQQIKELLLKHYPNQTTELRHKNPYELLVATILSAQCTDARVNQITPKLFEKYPSVNDLALASLEEVKEIIKSVSYFNNKSKHLISMAQKVVRDFKGVIPSTQKELMSLDGVGQKTANVVLSVCFDANCIAVDTHVFRATHRLGLSNAKDPIKTEEELSDLFKDNLSKLHHALILFGRYTCKAKNPLCGACFLKEFCVSKASFKA | 0.06 OD595 | 0.15 OD595 | 0.21 OD595 | 
7 | T18-HP1089 (natural protein, Helicobacter pylori strain 26695, UniProt O25721 2-778, looked up) NLEKLFLEKTPLFVFSSTRRLKHFYLEQGEGFLPNAMSMGNFFEQAFYIPNKKKIPNSARLILMIDTIKAIAKEKKSILEGLLLFENSFLGYLESTSFLFDLFDELSSACIKLNELSSKDIYLDYEKHLEVLEMIYDRYIKKLEGLGFYDKIMQEKPAILKEFFEHFSSIEWHLDGFMSVFERQCLLEAAELVPITLHLSCDKYNQKFLEFLNLKLETDCDYSIDFKTQKILSQTPKRQKIEPKLYANSSYLKQSALVLQTIEEYLQKDNDPNKMAIITPNADFLPFLKLLDKNNNLNFAMGLGAKNSPYYTELVKILEDLETSDLDLSGSALLDLENITLALLEQQSSKEKAPLKEAHSQIMHQYHLLKDTLKNYSLKDLLHLYLQEFEANFRLDDSSGGKIRVMDTLETRGMQFDKIVIVDFNETCVPSLKDCDLFLNSALRKSLNLPTLLDKKNLQKHYYYQLFKNSKEITLSYIESETSKASNMLLELNLHIEPIKDAYTLFAPSPLKDYQEEEIKAAIPKDFSFSASSLNAFLTCKRRFYYHYIKRFKESPKDENNSAVGSLLHELLKEAYEKDKTPHALEERLIWLLETRENITPKERLDTLVVLKKIQAFYKKERERFNAEITILDLEKSFETIIQGVIFKGRIDRIDKTADNEIILLDYKFKSDLKLDSMSKTQRGGLSPIEIAQISTDYQMAIYAFALKNLGYKEPIKAFFYDLRKGELLEEEELILQAKMDHLEFSLIPKLKQEIDFEKTLEVKDCEYCSFKDMCNR |  | 0.29 OD595 | 0.26 OD595 | 
8 | T18-HP0734 (natural protein, Helicobacter pylori strain 26695, UniProt O25434 2-439, looked up) QVKENKQLCLISLGCSKNLVDSEVMLGKLYNYTLTNDAKSADVILINTCGFIESAKQESIQTILNAAKDKKEGAILIASGCLSERYKDEIKELIPEVDIFTGVGDYDKIDIMIAKKQNQFSEQVFLSEHYNARIITGSSVHAYVKISEGCNQKCSFCAIPSFKGKLQSRELDSILKEVENLALKGYTDMTFIAQDSSSFLYDKGQKDGLIQLIRAIDKQQALKSARILYLYPSSTTLELIGAIESSPIFQNYFDMPIQHISDSMLKKMRRNSSQAHHLKLLDAMKQVKESFIRSTIIVGHPEENESEFEELSAFLDEFQFDRLNIFAFSAEENTHAYSLEKVPKKTINARIKALNKIALKHQNHSFKALLNKPIKALVENKEGEYFYKARDLRWAPEVDGEILINDSELTTPLKPGHYTIAPSEFKDNILLAKVLSPF | 0.12 OD595 | 0.48 OD595 | 0.4 OD595 | 
9 | T18-HP0221 (natural protein, Helicobacter pylori strain 26695, UniProt O25009 2-326, looked up) AKHDLVGSVLWDAYSKEVQRRMDNPTHLGVITEEQAKAKNAKLIVADYGAEACGDAVRLYWLVDESTDRIVDAKFKSFGCGTAIASSDMMVELCLNKRVQDAVKITNLDVERGLRDDPDTPAVPGQKMHCSVMAYDVIKKAAGMYLGKNAEDFEEEIIVCECARVSLGTIKEVIKLNDLKSVEEITNYTKAGAFCKSCVRPGGHEKRDYYLVDILKEVREEMEAEKLKATANKSQSGELAFREMTMVQKIKAVDKVIDENIRPMLMMDGGDLEILDIKESDDYIDVYIRYMGACDGCMSATTGTLFAIENALQELLDRSIRVLPI | 0.08 OD595 |  |  | 0.12 OD595
10 | T18-HP0665 (natural protein, Helicobacter pylori strain 26695, UniProt O25376 2-457, looked up) QTIDFEKFSQYSKPGPRYTSYPTAVEFNENFNEESLKTAFFNHDNLKNPMPLSLYTHLPFCRSACYFCACSVIYTSLEEKKIRYISYLKKELALLKNAMDTNREVAQFHYGGGTPTFFSPIQLDEITQSIQEVFPNFSKDIEMSCEIDPRHFTKEHMQTLFDRGFNRLSFGVQDFDFEVQKAIHRIQPFEMVQESVKLARDYGIKSINFDLIYGLPNQTKEGFLKTLEWVLKLDPDRLAVFNYAHVPWVKKTMRKIDETLLPSLRDKLEILESLISFLEKANYQMIGMDHFAKSDNELYLALQKAELRRNFQGYTTKKFTQTIGIGVTSIGEGGDYYTQNYKDLHHYEKALDLGHLPVERGVALSQEDVLRKEVIMQMMSNLKLDYSKIEEKFSVDFKAHFKKELEKLKPYEEAGLLSFNSKGFEMTKTGGMLVRNMAMEFDAYLRGGEKHFSKTL |  | 0.06 OD595 | 0.07 OD595 | 
11 | T18-HP0666 (natural protein, Helicobacter pylori strain 26695, UniProt O25377 2-433, looked up) NENINENIFEEVGDACVKCAKCVPGCTIYRIHKDEATSPRGFLDLMRLNAQNKLQLDTNLKHLLETCFLCTACVEICPFHLPIDTLIEKAREKIAQKHGIAWYKKSYFSLLKNRKKMDRVFSTAHFLAPCVFKQVGDSLEPRAVFKGLFKRFKKSALPPLNQKSFLQKHAEMKLLENPIQKVAIFIGCLSNYHYQQVGESLLYILEKLNIQAIIPKQECCSAPAYFTGDKDTTLFLVKKNIEWFESYLDKVDAIIVPEATCASMLINDYYKVFLGEKDKDLYVKRLEKITPKIYLASVFLEKHTPLKSLLEKIPKGKKETITYHNPCHAKKTLNAHKEVRNLLNLHYEIKEMPDNCCGFGGITMQTQKAGFSLKVGLLRAKEIIDTKAAILSAECGACHMQLNNALKSLDDPNTPPFLHPLELIAKALKSAE |  | 0.11 OD595 | 0.48 OD595 | 
